B1: SLAM family member 7 (Mus musculus), Q8BHK6 (parent)
chain: MARFSTYIIFTSVLCQLTVTAASGTLKKVAGALDGSVTFTLNITEIKVDYVVWTFNTFFLAMVKKDGVTSQSSNKERIVFPDGLYSMKLSQLKKNDSGAYRAEIYSTSSQASLIQEYVLHVYKHLSRPKVTIDRQSNKNGTCVINLTCSTDQDGENVTYSWKAVGQGDNQFHDGATLSIAWRSGEKDQALTCMARNPVSNSFSTPVFPQKLCEDAATDLTSLRGILYILCFSAVLILFAVLLTIFHTTWIKKGKGCEEDKKRVDRHQEMPDLCPHLEENADYDTIPYTEKRRPEEDAPNTFYSTVQIPKVVKSPSSLPAKPLVPRSLSFENVI
partner: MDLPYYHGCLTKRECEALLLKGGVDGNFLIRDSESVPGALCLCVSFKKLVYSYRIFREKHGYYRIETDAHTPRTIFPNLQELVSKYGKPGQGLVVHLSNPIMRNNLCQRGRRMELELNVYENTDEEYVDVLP

Variants of: B1
Conditions: with sh21b_mouse Sh2d1b

effect of a mutation on the interaction | Variant
disrupting interaction | MARFSTYIIFTSVLCQLTVTAASGTLKKVAGALDGSVTFTLNITEIKVDYVVWTFNTFFLAMVKKDGVTSQSSNKERIVFPDGLYSMKLSQLKKNDSGAYRAEIYSTSSQASLIQEYVLHVYKHLSRPKVTIDRQSNKNGTCVINLTCSTDQDGENVTYSWKAVGQGDNQFHDGATLSIAWRSGEKDQALTCMARNPVSNSFSTPVFPQKLCEDAATDLTSLRGILYILCFSAVLILFAVLLTIFHTTWIKKGKGCEEDKKRVDRHQEMPDLCPHLEENADFDTIPFTEKRRPEEDAPNTFFSTVQIPKVVKSPSSLPAKPLVPRSLSFENVI [Y282F;Y287F;Y302F]
disrupting interaction | MARFSTYIIFTSVLCQLTVTAASGTLKKVAGALDGSVTFTLNITEIKVDYVVWTFNTFFLAMVKKDGVTSQSSNKERIVFPDGLYSMKLSQLKKNDSGAYRAEIYSTSSQASLIQEYVLHVYKHLSRPKVTIDRQSNKNGTCVINLTCSTDQDGENVTYSWKAVGQGDNQFHDGATLSIAWRSGEKDQALTCMARNPVSNSFSTPVFPQKLCEDAATDLTSLRGILYILCFSAVLILFAVLLTIFHTTWIKKGKGCEEDKKRVDRHQEMPDLCPHLEENADYDTIPYTEKRRPEEDAPNTFFSTVQIPKVVKSPSSLPAKPLVPRSLSFENVI [Y302F]
